Source: article doi:10.1101/2023.07.07.548133

Target: cytosolic PAS domain (PASc) of the bacterial citrate sensor histidine kinase (CitA)
Experiment: MINFLUX fluorescence nanoscopy

cytosolic PAS domain (PASc) of the bacterial citrate sensor histidine kinase (CitA) (domain or fragment)
stoichiometry N: 2
